B1: TPR 5TU (parent)
chain: GGAUCUUCUCGAUCUAACAAAAAAGACAAAUCUGCCACAAAGCUUGAGAGCAUCUUCGGAUGCAGAGGCGGCAGCCUUCGGUGGCGCGAUAGCGCCAACGUUCUCAACUAUGACACGCAAAACGCGUGCUCCGUUGAAUGGAGUUUAUCAUG

Variants at the floor of the assay were thinned out.

In the series the parent is B1. Put plainly: polymerase ribozyme fitness, log enrichment relative to wild type (log ratio); higher = more active; in vitro selection for triplet polymerase activity. In a few lines: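 Mutant libraries of both subunits of a heterodimeric triplet polymerase ribozyme were PCR-built, transcribed, and selected once in triplicate, with frozen incubation at −7 °C and capture of gel-excised extended constructs on streptavidin beads before RT-PCR. Illumina sequencing of input and output libraries was filtered to genotypes with ≥10 input reads and ≥1 read per output. Fitness is the logarithm of genotype enrichment over wild-type enrichment, using inverse-variance-weighted replicate averages. The logarithm is base 2.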
In the case of G71C G83U G141A A147C C149A, the “polymerase ribozyme fitness (log ratio)” value is no more than -4.2.

Consider C72A G140U, for which the “polymerase ribozyme fitness (log ratio)” value was no more than -4.2.

Take A73U G100U U104A G126C: the “polymerase ribozyme fitness (log ratio)” value was no more than -4.2.

With G70A A122U, the “polymerase ribozyme fitness (log ratio)” value was -3.6.

C69U G128C U130C C132G U135A A138C: the “polymerase ribozyme fitness (log ratio)” value is no more than -4.2.

In the case of C69U C116G, the “polymerase ribozyme fitness (log ratio)” value worked out at 0.325.

Turning to A73U U90G G117U G133U, the “polymerase ribozyme fitness (log ratio)” value is no more than -4.2.

Regarding G70A U101C C103G C123U, the “polymerase ribozyme fitness (log ratio)” value was no more than -4.2.

A73G A89U: the “polymerase ribozyme fitness (log ratio)” value is -0.161.

In the case of A73U G83C G143C, the “polymerase ribozyme fitness (log ratio)” value was no more than -4.2.

Regarding A73G A142C, the “polymerase ribozyme fitness (log ratio)” value is -1.76.

For G74A A106C A142C, the “polymerase ribozyme fitness (log ratio)” value was no more than -4.2.

For A73G C93U G141U, the “polymerase ribozyme fitness (log ratio)” value was 0.326.

In the case of C69U G126A, the “polymerase ribozyme fitness (log ratio)” value worked out at 0.958.

As to G74A A89C G94U U109G G117U, the “polymerase ribozyme fitness (log ratio)” value was no more than -4.2.

As to C72U G86A C95A A97G A98U U104A A122U, the “polymerase ribozyme fitness (log ratio)” value was no more than -4.2.

Regarding C72A U78G C85U A97U G140C, the “polymerase ribozyme fitness (log ratio)” value is no more than -4.2.

Consider A73G C99U, for which the “polymerase ribozyme fitness (log ratio)” value is -0.979.

Regarding G71C C76G A113U G124A, the “polymerase ribozyme fitness (log ratio)” value was no more than -4.2.

For G71A C99U, the “polymerase ribozyme fitness (log ratio)” value is no more than -4.2.

In the case of G71A C85G C87U, the “polymerase ribozyme fitness (log ratio)” value is no more than -4.2.

Take A73U G80A C93U U146G: the “polymerase ribozyme fitness (log ratio)” value was -3.03.

In the case of G71C G92U, the “polymerase ribozyme fitness (log ratio)” value was -3.46.

G71C G92A: the “polymerase ribozyme fitness (log ratio)” value is no more than -4.2.

Take C69G C87A A91C G126A: the “polymerase ribozyme fitness (log ratio)” value was no more than -4.2.

For the variant C69G U77C C87U G140U, the “polymerase ribozyme fitness (log ratio)” value was no more than -4.2.

Consider C69G C85U A91G C118A C129G U144A, for which the “polymerase ribozyme fitness (log ratio)” value is no more than -4.2.

For the variant G74U C85G C99A A107U C125A, the “polymerase ribozyme fitness (log ratio)” value is no more than -4.2.

With C72U G124U A142G, the “polymerase ribozyme fitness (log ratio)” value was -2.

Regarding A73G G83A, the “polymerase ribozyme fitness (log ratio)” value was -1.72.

Regarding G71U A120G U146C, the “polymerase ribozyme fitness (log ratio)” value was -2.36.

On to A73U C76A U77A G94C U104G A106G C108U, for which the “polymerase ribozyme fitness (log ratio)” value was no more than -4.2.

For the variant C72U G83A C93U U111C A120U G143U, the “polymerase ribozyme fitness (log ratio)” value is no more than -4.2.

For the variant G71A C76G U82A G83C C131A, the “polymerase ribozyme fitness (log ratio)” value is no more than -4.2.

Regarding C69U A73G G83C, the “polymerase ribozyme fitness (log ratio)” value is -3.38.

With A73U C96U C108G G141A U146G, the “polymerase ribozyme fitness (log ratio)” value was no more than -4.2.

In the case of G74A U82G G94U G136A, the “polymerase ribozyme fitness (log ratio)” value is no more than -4.2.

On to C69U G70A C99A G100A, for which the “polymerase ribozyme fitness (log ratio)” value was no more than -4.2.

In the case of A73G A106C U111A U144A, the “polymerase ribozyme fitness (log ratio)” value was no more than -4.2.

On to G71A C96A, for which the “polymerase ribozyme fitness (log ratio)” value was -3.18.

Regarding G70A C79A C87G C99U C105U A142G, the “polymerase ribozyme fitness (log ratio)” value was no more than -4.2.

For the variant G74A G80A C85A G92A C125A G136C A138G, the “polymerase ribozyme fitness (log ratio)” value is no more than -4.2.

On to G74A U145A, for which the “polymerase ribozyme fitness (log ratio)” value is -3.36.

On to A73G C93A U146C, for which the “polymerase ribozyme fitness (log ratio)” value was -2.15.

Regarding G71C C95A, the “polymerase ribozyme fitness (log ratio)” value was no more than -4.2.

With G71A A91U C95G A119U A121G C129A A147G, the “polymerase ribozyme fitness (log ratio)” value is no more than -4.2.

For C72U U134A, the “polymerase ribozyme fitness (log ratio)” value was -2.32.

As for A73U G94A G152C, the “polymerase ribozyme fitness (log ratio)” value was no more than -4.2.

Regarding A73G G128C, the “polymerase ribozyme fitness (log ratio)” value is -3.67.

Take C69G C76G C96A A138G: the “polymerase ribozyme fitness (log ratio)” value was no more than -4.2.

Consider A73C A121U G133U, for which the “polymerase ribozyme fitness (log ratio)” value is no more than -4.2.

Consider G70A G74A U101G U104C A147U, for which the “polymerase ribozyme fitness (log ratio)” value is no more than -4.2.

Turning to C75A C103G, the “polymerase ribozyme fitness (log ratio)” value is no more than -4.2.

On to A73U U102G, for which the “polymerase ribozyme fitness (log ratio)” value was no more than -4.2.

In the case of G71A C87G C93A C95G, the “polymerase ribozyme fitness (log ratio)” value is no more than -4.2.

Take A73U C85U G117U: the “polymerase ribozyme fitness (log ratio)” value was -0.841.

In the case of G70A G100C, the “polymerase ribozyme fitness (log ratio)” value is no more than -4.2.

In the case of C69U G94A A122G U135A U146G, the “polymerase ribozyme fitness (log ratio)” value is -2.95.

As for A73G G88A A107G, the “polymerase ribozyme fitness (log ratio)” value was no more than -4.2.

Take A73G G84U: the “polymerase ribozyme fitness (log ratio)” value is -1.29.

Turning to G70U U139G, the “polymerase ribozyme fitness (log ratio)” value was -2.93.

For the variant C69G A119U, the “polymerase ribozyme fitness (log ratio)” value is -1.72.

With G70A A97G, the “polymerase ribozyme fitness (log ratio)” value was -3.26.

Consider G70A A97U, for which the “polymerase ribozyme fitness (log ratio)” value was -3.59.

With A73G A97G, the “polymerase ribozyme fitness (log ratio)” value was 0.222.

As for C72U C96A C105U C132U, the “polymerase ribozyme fitness (log ratio)” value is -1.29.

Consider A73G C95U A122U C125U U127G A138G, for which the “polymerase ribozyme fitness (log ratio)” value was no more than -4.2.

For C69G C103A U144G, the “polymerase ribozyme fitness (log ratio)” value was -1.57.

As to C72A U148A, the “polymerase ribozyme fitness (log ratio)” value is no more than -4.2.

G74C C76A C87U C114U C116U: the “polymerase ribozyme fitness (log ratio)” value is no more than -4.2.

For G70C A142C, the “polymerase ribozyme fitness (log ratio)” value is -3.72.

With G71U U144G, the “polymerase ribozyme fitness (log ratio)” value was -1.84.

As for G71C U82C, the “polymerase ribozyme fitness (log ratio)” value was -2.48.

Regarding G70C G92U, the “polymerase ribozyme fitness (log ratio)” value is -3.01.

Regarding G71U G83C, the “polymerase ribozyme fitness (log ratio)” value was -2.74.

In the case of G71U G83U, the “polymerase ribozyme fitness (log ratio)” value was -3.48.

On to A73G C87G U101G U139C, for which the “polymerase ribozyme fitness (log ratio)” value is no more than -4.2.

Turning to C72G G81U C87A C95U U104A, the “polymerase ribozyme fitness (log ratio)” value is no more than -4.2.

In the case of G74C A97U C132A G141A G143C, the “polymerase ribozyme fitness (log ratio)” value is no more than -4.2.

For C75A G80C C105G, the “polymerase ribozyme fitness (log ratio)” value was no more than -4.2.

For the variant C75G A89U C93G U104G A147C, the “polymerase ribozyme fitness (log ratio)” value was no more than -4.2.

G74C A150C: the “polymerase ribozyme fitness (log ratio)” value is no more than -4.2.

Consider G71C C85U, for which the “polymerase ribozyme fitness (log ratio)” value was -3.27.

As to C72U U90C C93A U104A U127A, the “polymerase ribozyme fitness (log ratio)” value was no more than -4.2.

These data come from the RNAGym collection of RNA variant scans (doi:10.1073/pnas.2313332121).
